Experimental data from patent publication US20250388652A1 (BEIJING WISDOMAB BIOTECHNOLOGY, published 2025).

How the values were obtained:
[1] = molecular target: T1, F protein of strain A2 of RSV subtype A (respiratory syncytial virus subtype A, …, UniProt P03420 26-574); assay: cell-based or functional assay
[2] = molecular target: T2, F protein mutant RSV-DS-Cav1-A with a DS-Cav1 structure before fusion (respiratory syncytial virus subtype A, …, UniProt P03420 26-513)
[3] = molecular target: T3, F protein of strain 18537 of RSV subtype B (respiratory syncytial virus subtype B, …, UniProt P13843 26-574); assay: cell-based or functional assay
[4] = molecular target: T1, F protein of strain A2 of RSV subtype A; assay: cell-based or functional assay; remark: listed apart in the source
[5] = molecular target: T2, F protein mutant RSV-DS-Cav1-A with a …; remark: listed apart in the source
[6] = molecular target: T3, F protein of strain 18537 of RSV …; assay: cell-based or functional assay; remark: listed apart in the source

Binder	IC50(nM), inhibition of RSV/A2 strain infection of Hep-2 cells (RFFIT) [1] [nM]	EC50 (read off the curve) [2] [nM]	neutralisation activity against RSV/18537 relative to Clesrovimab, by IC50 [3] [fold]	neutralisation activity against RSV/18537 relative to Nirsevimab, by IC50 [3] [fold]	neutralisation activity against RSV/18537 relative to Palivizumab, by IC50 [3] [fold]	neutralisation activity against RSV/A2 relative to Clesrovimab, by IC50 [4] [fold]	neutralisation activity against RSV/A2 relative to Nirsevimab, by IC50 [4] [fold]	neutralisation activity against RSV/A2 relative to Palivizumab, by IC50 [4] [fold]	Kd [5] [nM]	koff [5] [s⁻¹]	kon [5] [M⁻¹ s⁻¹]	IC50(nM), inhibition of strain RSV/18537 infection of Hep-2 cells (RFFIT) [6] [nM]
recombinant monoclonal antibody R3B1h1 against F protein of RSV (human IgG1-K version) (antibody, V domains shown) VH: QVQLVQSGAEVKKPGSSVKVSCKASGGLLEDYIINWVRQAPGQGLEWMGGIIPVLGTVHYGPKFQGRVTITADESTSTAYMELSSLRSEDTAVYYCATETAIVVTESYRPHFFDNWGQGTLVTVSS VL: DIQMTQSPSSLSASVGDRVTITCQASQDIVNYLNWYQQKPGKAPKLLIYVASNLETGVPSRFSGSGSGTDFTFTISSLQPEDIATYYCQEFAGLALNFGGGTKVEIKR	0.00516	~0.1	~12	~18	~545	~12	~5	~410	0.621	2.37e-05	31800	–
recombinant monoclonal antibody R22B1 against F protein of RSV (human IgG1-K version) (antibody, V domains shown) VH: QVQLVQSGAEVKKPGSSVMVSCQASGDPLQNYIINWVRQAPGQGPEWMGAIIPALGSAHYGPKFQGRVTITADESTDTAYMELSSLRSEDTAMYYCATETAVIISESYLPHFFDNWGQGTLVTVSS VL: DIQMTQSPSSLSAAVGDRVTITCQASQDIVNYLNWYQQKPGKAPKLLIYVASNLETGVPSRFSGSGSGTDFSLTISSLQPEDVATYYCQEYDSLALAFGGGTKVEIKR	–	–	–	–	–	–	–	–	0.354	1.41e-05	39900	0.111
anti-RSV monoclonal antibody Nirsevimab (MEDI8897) (antibody, V domains shown) VH: QVQLVQSGAEVKKPGSSVMVSCQASGGLLEDYIINWVRQAPGQGPEWMGGIIPVLGTVHYGPKFQGRVTITADESTDTAYMELSSLRSEDTAMYYCATETALVVSETYLPHYFDNWGQGTLVTVSS VL: DIQMTQSPSSLSAAVGDRVTITCQASQDIVNYLNWYQQKPGKAPKLLIYVASNLETGVPSRFSGSGSGTDFSLTISSLQPEDVATYYCQQYDNLPLTFGGGTKVEIK	–	–	–	–	–	–	–	–	0.477	1.5e-05	31500	0.139
anti-RSV monoclonal antibody Clesrovimab (RB1) (antibody, V domains shown) VH: EVQLVESGGGLVRPGRSLRLSCTVSGFSFDDSAMSWVRQAPGKGLEWISFIKSKTYGGTKEYAASVKGRFTISRDDSKNIAYLQMNSLKTEDTAVYYCTRGAPYGGNSDYYYGLDVWGQGTTVTVSS VL: DIQMTQSPSSLSASVGDRVTITCRTSQDVRGALAWYQQKPGKAPKLLIFDASSLETGVPSRFSGSGSGTVFTLTISSLQPEDFAAYYCQQFLDFPFTFGQGTRLEIK	–	–	–	–	–	–	–	–	17.6	0.000351	20000	0.088
anti-RSV monoclonal antibody Palivizumab (Hu1129) (antibody, V domains shown) VH: QVTLRESGPALVKPTQTLTLTCTFSGFSLSTSGMSVGWIRQPPGKALEWLADIWWDDKKDYNPSLKSRLTISKDTSKNQVVLKVTNMDPADTATYYCARSMITNWYFDVWGAGTTVTVSS VL: DIQMTQSPSTLSASVGDRVTITCKCQLSVGYMHWYQQKPGKAPKLWIYDTSKLASGVPSRFSGSGSGTEFTLTISSLQPDDFATYYCFQGSGYPFTFGGGTKLEIK	–	–	–	–	–	–	–	–	2.6	8.2e-05	31600	4.15
